Laboratory results: paper PMC4004530 (Circulation research, 2013)
Like-named read-outs stand apart in the source and are kept apart here.

Columns and labels:
[1] = target: Cardiac ryanodine receptor (RyR2) in rat ventricular myocytes (rat (endogenous in ventricular myocytes)) (UniProt B0LPN4); test: FRET or BRET
[2] = target: Cardiac ryanodine receptor (RyR2) in rat ventricular myocytes (rat (endogenous in ventricular myocytes)) (UniProt B0LPN4); test: FRET or BRET; remark: listed apart in the source
[3] = target: Cardiac ryanodine receptor (RyR2) in rat ventricular myocytes (rat (endogenous in ventricular myocytes), UniProt B0LPN4 1-4955); test: other fluorescence titration
Chain of Cardiac ryanodine receptor (RyR2) in rat ventricular myocytes (B0LPN4 whole entry): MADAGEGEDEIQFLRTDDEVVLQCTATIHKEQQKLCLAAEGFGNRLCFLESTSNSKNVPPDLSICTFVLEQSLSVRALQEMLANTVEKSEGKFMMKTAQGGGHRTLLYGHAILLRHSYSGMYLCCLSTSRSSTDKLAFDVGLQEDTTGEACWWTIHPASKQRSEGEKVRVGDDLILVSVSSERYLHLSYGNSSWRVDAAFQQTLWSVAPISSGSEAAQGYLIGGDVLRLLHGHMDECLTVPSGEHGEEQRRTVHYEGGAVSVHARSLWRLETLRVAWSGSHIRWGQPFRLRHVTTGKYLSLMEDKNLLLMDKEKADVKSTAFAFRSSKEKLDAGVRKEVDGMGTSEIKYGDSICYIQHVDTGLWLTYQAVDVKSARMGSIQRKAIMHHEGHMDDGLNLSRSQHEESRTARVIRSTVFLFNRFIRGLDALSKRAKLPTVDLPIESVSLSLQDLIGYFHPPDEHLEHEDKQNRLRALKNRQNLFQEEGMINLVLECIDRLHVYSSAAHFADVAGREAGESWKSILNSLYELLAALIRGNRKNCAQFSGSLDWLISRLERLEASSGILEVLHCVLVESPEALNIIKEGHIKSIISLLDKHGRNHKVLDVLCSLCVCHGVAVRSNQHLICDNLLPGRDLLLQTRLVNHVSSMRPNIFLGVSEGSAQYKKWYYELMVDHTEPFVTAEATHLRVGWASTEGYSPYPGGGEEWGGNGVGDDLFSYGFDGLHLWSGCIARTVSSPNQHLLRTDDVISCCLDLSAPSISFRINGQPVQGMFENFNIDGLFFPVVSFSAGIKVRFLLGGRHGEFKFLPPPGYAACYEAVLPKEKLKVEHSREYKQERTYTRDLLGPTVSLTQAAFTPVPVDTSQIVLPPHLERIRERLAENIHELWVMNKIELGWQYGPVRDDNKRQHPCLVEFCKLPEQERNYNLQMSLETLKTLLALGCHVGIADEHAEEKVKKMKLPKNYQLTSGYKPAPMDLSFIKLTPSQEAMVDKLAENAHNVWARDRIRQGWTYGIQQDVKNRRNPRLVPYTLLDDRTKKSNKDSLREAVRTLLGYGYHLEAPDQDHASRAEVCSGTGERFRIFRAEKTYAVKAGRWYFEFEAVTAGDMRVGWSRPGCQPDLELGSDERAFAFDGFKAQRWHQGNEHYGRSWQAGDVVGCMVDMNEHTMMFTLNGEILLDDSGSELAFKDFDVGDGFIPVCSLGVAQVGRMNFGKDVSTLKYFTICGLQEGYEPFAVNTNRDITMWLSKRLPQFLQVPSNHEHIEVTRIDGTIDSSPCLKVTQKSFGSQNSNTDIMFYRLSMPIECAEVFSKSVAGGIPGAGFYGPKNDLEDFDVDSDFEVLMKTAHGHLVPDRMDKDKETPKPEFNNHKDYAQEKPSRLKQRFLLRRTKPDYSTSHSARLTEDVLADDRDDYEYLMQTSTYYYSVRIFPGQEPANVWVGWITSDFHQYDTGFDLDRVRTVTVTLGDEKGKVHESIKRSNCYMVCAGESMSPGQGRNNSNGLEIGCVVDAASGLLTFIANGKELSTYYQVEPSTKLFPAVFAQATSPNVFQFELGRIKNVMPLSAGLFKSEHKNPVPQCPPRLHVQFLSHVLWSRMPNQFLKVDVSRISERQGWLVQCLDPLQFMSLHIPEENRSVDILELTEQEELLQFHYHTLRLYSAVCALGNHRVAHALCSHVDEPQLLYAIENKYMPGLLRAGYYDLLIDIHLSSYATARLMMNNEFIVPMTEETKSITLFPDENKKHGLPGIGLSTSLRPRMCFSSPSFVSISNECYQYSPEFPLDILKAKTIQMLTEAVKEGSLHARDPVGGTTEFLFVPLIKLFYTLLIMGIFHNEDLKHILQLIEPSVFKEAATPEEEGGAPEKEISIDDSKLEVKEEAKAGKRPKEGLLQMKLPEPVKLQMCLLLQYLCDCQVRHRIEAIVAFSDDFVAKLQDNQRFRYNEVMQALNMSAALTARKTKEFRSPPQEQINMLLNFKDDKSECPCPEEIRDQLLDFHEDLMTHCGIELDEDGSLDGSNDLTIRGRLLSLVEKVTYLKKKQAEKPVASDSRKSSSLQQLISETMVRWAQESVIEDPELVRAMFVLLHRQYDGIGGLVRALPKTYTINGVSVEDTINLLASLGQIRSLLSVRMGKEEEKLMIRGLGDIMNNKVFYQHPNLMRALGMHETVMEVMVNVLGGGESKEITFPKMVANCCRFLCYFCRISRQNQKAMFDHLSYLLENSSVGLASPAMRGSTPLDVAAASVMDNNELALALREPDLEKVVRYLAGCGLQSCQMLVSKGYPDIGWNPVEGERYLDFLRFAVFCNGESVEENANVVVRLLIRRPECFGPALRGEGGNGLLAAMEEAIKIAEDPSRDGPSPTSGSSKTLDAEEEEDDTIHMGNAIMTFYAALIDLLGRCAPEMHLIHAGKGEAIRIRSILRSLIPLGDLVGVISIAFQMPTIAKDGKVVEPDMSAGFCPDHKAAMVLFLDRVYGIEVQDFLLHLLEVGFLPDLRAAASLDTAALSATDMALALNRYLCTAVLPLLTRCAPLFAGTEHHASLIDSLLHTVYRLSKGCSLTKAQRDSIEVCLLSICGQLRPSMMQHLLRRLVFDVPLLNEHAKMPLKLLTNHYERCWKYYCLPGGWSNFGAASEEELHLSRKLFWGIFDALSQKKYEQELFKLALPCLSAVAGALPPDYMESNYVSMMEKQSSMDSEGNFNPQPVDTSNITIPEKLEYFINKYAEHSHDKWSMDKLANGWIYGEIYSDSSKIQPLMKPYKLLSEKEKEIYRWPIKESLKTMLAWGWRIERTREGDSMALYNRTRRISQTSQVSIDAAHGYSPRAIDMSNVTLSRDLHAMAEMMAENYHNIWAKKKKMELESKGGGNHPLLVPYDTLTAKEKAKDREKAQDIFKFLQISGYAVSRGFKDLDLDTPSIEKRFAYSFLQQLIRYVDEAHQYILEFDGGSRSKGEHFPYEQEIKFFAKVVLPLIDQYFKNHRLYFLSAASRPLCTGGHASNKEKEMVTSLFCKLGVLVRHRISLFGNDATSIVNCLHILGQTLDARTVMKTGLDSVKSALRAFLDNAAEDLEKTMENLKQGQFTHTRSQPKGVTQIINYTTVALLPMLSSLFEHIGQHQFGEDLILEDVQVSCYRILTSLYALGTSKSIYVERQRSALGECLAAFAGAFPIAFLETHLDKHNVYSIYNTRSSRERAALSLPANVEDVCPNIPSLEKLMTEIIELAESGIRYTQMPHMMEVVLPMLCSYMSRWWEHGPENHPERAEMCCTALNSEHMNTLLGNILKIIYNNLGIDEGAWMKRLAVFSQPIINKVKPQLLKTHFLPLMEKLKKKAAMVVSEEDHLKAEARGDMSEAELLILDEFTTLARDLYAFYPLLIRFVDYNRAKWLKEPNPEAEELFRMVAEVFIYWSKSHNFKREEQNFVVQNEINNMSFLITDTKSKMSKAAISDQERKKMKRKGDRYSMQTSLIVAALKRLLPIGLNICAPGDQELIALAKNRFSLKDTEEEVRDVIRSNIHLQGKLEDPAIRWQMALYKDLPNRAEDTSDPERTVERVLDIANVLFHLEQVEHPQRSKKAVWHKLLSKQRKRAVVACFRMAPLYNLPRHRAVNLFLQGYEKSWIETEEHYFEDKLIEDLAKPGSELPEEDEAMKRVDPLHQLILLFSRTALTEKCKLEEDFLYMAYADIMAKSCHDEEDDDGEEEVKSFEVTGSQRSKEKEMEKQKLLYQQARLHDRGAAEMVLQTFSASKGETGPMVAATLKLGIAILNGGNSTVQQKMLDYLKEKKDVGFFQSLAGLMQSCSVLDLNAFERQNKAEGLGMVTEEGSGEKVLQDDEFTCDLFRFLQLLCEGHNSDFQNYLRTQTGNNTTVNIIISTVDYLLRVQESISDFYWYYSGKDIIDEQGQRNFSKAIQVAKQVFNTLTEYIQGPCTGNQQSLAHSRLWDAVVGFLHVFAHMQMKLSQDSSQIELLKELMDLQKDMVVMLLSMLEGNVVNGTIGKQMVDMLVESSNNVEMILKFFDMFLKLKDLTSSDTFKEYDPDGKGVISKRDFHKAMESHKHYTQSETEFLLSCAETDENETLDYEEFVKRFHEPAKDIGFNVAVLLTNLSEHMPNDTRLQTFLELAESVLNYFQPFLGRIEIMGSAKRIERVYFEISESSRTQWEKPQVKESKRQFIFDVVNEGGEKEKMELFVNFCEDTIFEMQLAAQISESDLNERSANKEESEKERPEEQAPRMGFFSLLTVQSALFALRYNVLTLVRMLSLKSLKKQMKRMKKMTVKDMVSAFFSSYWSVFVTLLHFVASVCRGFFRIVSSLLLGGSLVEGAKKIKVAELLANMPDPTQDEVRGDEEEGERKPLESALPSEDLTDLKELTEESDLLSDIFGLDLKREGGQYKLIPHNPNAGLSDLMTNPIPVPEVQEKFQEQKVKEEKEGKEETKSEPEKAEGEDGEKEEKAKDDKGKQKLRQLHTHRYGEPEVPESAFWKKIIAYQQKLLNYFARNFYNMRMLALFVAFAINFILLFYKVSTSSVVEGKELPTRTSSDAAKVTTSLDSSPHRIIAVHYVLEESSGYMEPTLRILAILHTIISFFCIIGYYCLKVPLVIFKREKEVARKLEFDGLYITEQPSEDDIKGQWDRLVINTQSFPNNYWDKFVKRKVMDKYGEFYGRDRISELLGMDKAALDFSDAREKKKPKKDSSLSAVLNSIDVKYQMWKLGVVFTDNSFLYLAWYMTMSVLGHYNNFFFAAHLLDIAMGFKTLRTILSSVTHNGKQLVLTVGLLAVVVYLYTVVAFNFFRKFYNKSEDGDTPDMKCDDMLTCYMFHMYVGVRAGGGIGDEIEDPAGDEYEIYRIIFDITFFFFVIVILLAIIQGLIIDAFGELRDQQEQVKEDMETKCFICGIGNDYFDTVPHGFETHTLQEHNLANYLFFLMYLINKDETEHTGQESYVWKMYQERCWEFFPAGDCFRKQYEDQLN

Chain of Cardiac ryanodine receptor (RyR2) in rat ventricular myocytes (rat (endogenous in ventricular myocytes)) (B0LPN4 whole entry): as above

Row | Kd [1] [nM] | Kd [2] [nM] | Kd [3] [nM] | Molecule
1 | 12 | 10 | – | Fluorescent calmodulin (CaM labeled with Alexa Fluor 568) (from UniProt P0DP23 1-149) (natural protein)
2 | – | – | 0.8 ± 0.1 | Fluorescent FKBP12.6 (FK506 binding protein 12.6 labeled with Alexa Fluor 488) (natural protein, Alexa Fluor 488 label (site not stated)) MGVEIETISPGDGRCFPKKGQTAVVHYTGMLQNGKKFDSSRDRNKPFKFRIGKQEVIKGFEEGAAQMSLGQRAKLTITPDVAYGATGHPGVIPPNATLIFDVELLNLE
